These results are taken from patent publication US20150307617A1 (Genentech, published 2015).

Numbering of substitutions follows the chain as printed.

To fix the notation:
B1: 1A7.gr.3 (antibody, V domains shown)
VH: EVQLVQSGAEVKKPGASVKVSCKASGYTFTDSYMSWVRQAPGQGLEWIGDMYPDNGDSSYNQKFRERVTLTVDTSTSTAYLELSSLRSEDTAVYYCVLAPRWYFSVWGQGTLVTVSS
VL: DIQMTQSPSSLSASVGDRVTITCRASQDISNYLNWYQQKPGKAPKLLIYYTSRLRSGVPSRFSGSGSGTDFTLTISSLQPEDFATYYCQQGHTLPPTFGQGTKVEIK
notes: human Fc
B2: 1D2.gr.2 (antibody, V domains shown)
VH: EVQLVESGPGLVKPSETLSLTCTVSGFSLTDYGVLWIRQPPGKGLEWIGMIWSGGTTDYNAAFISRVTISKDTSKNQVSLKLSSVTAADTAVYYCVREEMDYWGQGTLVTVSS
VL: B1 VL with Y32F, R55H, H92N, P96W
notes: human Fc
B3: 1A7.gr.2 (antibody, V domains shown)
VH: B1 VH with L70I
VL: B1 VL
notes: human Fc (captured by anti-human Fc)
B4: 1D2.gr.3 (antibody, V domains shown)
VH: B2 VH with I37V, I48L, V67L
VL: B1 VL with Y32F, R55H, H92N, P96W
notes: human Fc
B5: 1A7.gr.5′ (antibody, V domains shown)
VH: B1 VH
VL: B1 VL with A43T, P44V
notes: human Fc
B6: 1A7.gr.7′ (antibody, V domains shown)
VH: B1 VH
VL: B1 VL with A43T, P44V, T69K, F71Y, Y87F
notes: human Fc
B7: 1A7.gr.6 (antibody, V domains shown)
VH: B1 VH with L70I
VL: B1 VL with A43T, P44V, T69K, F71Y, Y87F
notes: human Fc
B8: 1D2.gr.1 (antibody, V domains shown)
VH: B2 VH with K71V, V78F
VL: B1 VL with Y32F, R55H, H92N, P96W
notes: human Fc
B9: 1A7.gr.4 (antibody, V domains shown)
VH: B1 VH with L70I
VL: B1 VL with A43T, P44V
notes: human Fc
B10: 3C8.gr.1 (antibody, V domains shown)
VH: EVQLVQSGAEVKKPGASVKVSCKASGYAFTNYLIEWVRQAPGQGLEWIGVINPGSGDTYYSEKFKGRVTITRDTSTSTAYLELSSLRSEDTAVYYCARDRLDYWGQGTLVTVSS
VL: DIQMTQSPSSLSASVGDRVTITCHASQDISSYIVWYQQKPGKAPKLLIYHGTNLEDGVPSRFSGSGSGTDFTLTISSLQPEDFATYYCVHYAQFPYTFGQGTKVEIK
notes: human Fc
B11: 3C8.gr.8 (antibody, V domains shown)
VH: B10 VH with I70L
VL: B10 VL with A43S, P44F, L46G
notes: human Fc
B12: 3C8.gr.6 (antibody, V domains shown)
VH: B10 VH with R72A
VL: B10 VL with A43S, P44F, L46G, T69A, F71Y
notes: human Fc
B13: 3C8.gr.DA (antibody, V domains shown)
VH: B10 VH with T58A, I70L, R72A
VL: B10 VL with A43S, P44F, L46G
notes: also called 3C8.gr.5.DA
B14: 3C8.gr.9 (antibody, V domains shown)
VH: B10 VH with I70L
VL: B10 VL with A43S
notes: human Fc
B15: 3C8.gr.7 (antibody, V domains shown)
VH: B10 VH with I70L, R72A
VL: B10 VL with A43S, P44F, L46G, T69A, F71Y
notes: human Fc
B16: 3C8.gr.2 (antibody, V domains shown)
VH: B10 VH with R72A
VL: B10 VL
notes: human Fc
B17: 3C8.gr.DQ (antibody, V domains shown)
VH: B10 VH with T58Q, I70L, R72A
VL: B10 VL with A43S, P44F, L46G
notes: also called 3C8.gr.5.DQ
B18: 3C8.gr.11 (antibody, V domains shown)
VH: B10 VH with I70L
VL: B10 VL with L46G
notes: human Fc
B19: 3C8.gr.4 (antibody, V domains shown)
VH: B10 VH with R72A
VL: B10 VL with A43S, P44F, L46G
notes: human Fc
B20: 3C8.gr.3 (antibody, V domains shown)
VH: B10 VH with I70L, R72A
VL: B10 VL
notes: human Fc
B21: 3C8.gr.5.QG (antibody, V domains shown)
VH: B10 VH with I70L, R72A
VL: B10 VL with A43S, P44F, L46G, D56Q
B22: 3C8.gr.10 (antibody, V domains shown)
VH: B10 VH with I70L
VL: B10 VL with P44F
notes: human Fc
B23: 1A7.gr.DANADA (antibody, V domains shown)
VH: B1 VH with S32A, G56A, S58A, L70I, V72R
VL: B1 VL
B24: 1A7.gr.NGSS (antibody, V domains shown)
VH: B1 VH with D57S, L70I, V72R
VL: B1 VL
B25: 1A7.gr.DA (antibody, V domains shown)
VH: B1 VH with S32A, L70I, V72R
VL: B1 VL
B26: 1A7.gr.NADS (antibody, V domains shown)
VH: B1 VH with G56A, L70I, V72R
VL: B1 VL
B27: 1A7.gr.NADA (antibody, V domains shown)
VH: B1 VH with G56A, S58A, L70I, V72R
VL: B1 VL

One test deals with T1, Human OX40 (Sino Biological Inc) (human, UniProt P43489 29-216, limits assumed).
T1 construct: Bought soluble protein used as SPR analyte; also called huOX40
T1 sequence: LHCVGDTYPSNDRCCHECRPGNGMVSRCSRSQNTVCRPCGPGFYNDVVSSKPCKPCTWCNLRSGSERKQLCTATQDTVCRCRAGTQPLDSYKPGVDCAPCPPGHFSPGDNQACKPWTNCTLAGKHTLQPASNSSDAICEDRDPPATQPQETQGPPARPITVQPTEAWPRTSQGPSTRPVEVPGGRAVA
In words: SPR (Biacore), antibody captured via anti-human Fc, huOX40 analyte. The protocol: (§1) The binding kinetics of the anti-OX40 antibodies was measured using surface plasmon resonance (SPR) on a Biacore 3000 instrument (GE Healthcare). Anti-human Fc (GE Healthcare) was immobilized on a CM5 sensor chip via amine-based coupling using manufacturer provided protocol. Anti-OX40 antibody was captured at a level of 300-400 resonance units (RU). Antibody binding was measured to human OX40 (Sino Biological Inc). Two-fold concentration series of huOX40 with a range of either 18.75 to 300 nM or 6.25 to 200 nM were used for the experiments. Sensorgrams for binding of OX40 were recorded using an injection time of 2 minutes with a flow rate of 30 μl/min, at a temperature of 25° C., and with a running buffer of 10 mM HEPES, pH 7.4, 150 mM NaCl, and 0.005% Tween 20. After injection, disassociation of the ligand from the antibody was monitored for 600 seconds in running buffer. The surface was regenerated between binding cycles with a 40 μl injection of 3 M Magnesium Chloride.
Turning to B1, binding was characterised by a dissociation constant (Kd) of 0.525 nM; the koff (in general, the first-order rate constant of dissociation) is 0.000243 s⁻¹; the kon (in general, a measure of how fast the partners come together) stood at 462000 M⁻¹ s⁻¹.
The matching figures for B2: 55.9 nM, 0.0178 s⁻¹ and 319000 M⁻¹ s⁻¹.
The matching figures for B3: 0.524 nM, 0.000233 s⁻¹ and 444000 M⁻¹ s⁻¹.
The matching figures for B4: 59.5 nM, 0.0163 s⁻¹ and 273000 M⁻¹ s⁻¹.
With B5, the Kd (in general, the free concentration of one partner at which half of the binding sites on the other are occupied at equilibrium, for simple one-to-one binding) came out at 1.77 nM; the koff stood at 0.000492 s⁻¹; the kon stood at 278000 M⁻¹ s⁻¹.
For the molecule B6, the affinity, expressed as Kd, was 0.36 nM; the koff came to 0.000145 s⁻¹; the kon amounted to 401000 M⁻¹ s⁻¹.
The corresponding values for B7 are 0.177 nM, 6.93e-05 s⁻¹ and 391000 M⁻¹ s⁻¹.
For B8, the binding result is “binds”.
In the case of B9, the Kd worked out at 0.472 nM, the koff stood at 0.000163 s⁻¹ and the kon is 345000 M⁻¹ s⁻¹.
In turn, B10 had an equilibrium dissociation constant (Kd) of 6.49 nM, an off-rate (koff) of 0.00267 s⁻¹ and a kon of 412000 M⁻¹ s⁻¹.
The matching figures for B11: 2.16 nM, 0.000709 s⁻¹ and 329000 M⁻¹ s⁻¹.
For the molecule B12, the dissociation constant Kd came to 3.08 nM, the off-rate constant (koff) amounted to 0.00122 s⁻¹ and the kon came out at 395000 M⁻¹ s⁻¹.
The matching figures for B13: 12.9 nM, 0.00502 s⁻¹ and 388000 M⁻¹ s⁻¹.
The corresponding values for B14 are 4.28 nM, 0.00173 s⁻¹ and 404000 M⁻¹ s⁻¹.
For B15, binding was characterised by a dissociation constant (Kd) of 1.41 nM, the off-rate (koff) amounted to 0.000685 s⁻¹ and the kon was 486000 M⁻¹ s⁻¹.
The corresponding values for B16 are 5.48 nM, 0.00255 s⁻¹ and 466000 M⁻¹ s⁻¹.
As to B17, the Kd worked out at 8.12 nM, the koff was 0.00309 s⁻¹ and the on-rate constant (kon) is 381000 M⁻¹ s⁻¹.
The matching figures for B18: 2.86 nM, 0.000917 s⁻¹ and 321000 M⁻¹ s⁻¹.
Turning to B19, the Kd is 2.2 nM, the dissociation rate constant (koff) is 0.000923 s⁻¹ and the kon amounted to 420000 M⁻¹ s⁻¹.
The matching figures for B20: 3.94 nM, 0.00196 s⁻¹ and 498000 M⁻¹ s⁻¹.
B21 showed a Kd of 1.17 nM, a dissociation rate constant (koff) of 0.000534 s⁻¹ and an association rate constant (kon) of 457000 M⁻¹ s⁻¹.
On to B22, for which the dissociation constant Kd came to 2.84 nM, the koff stood at 0.00108 s⁻¹ and the on-rate constant (kon) amounted to 382000 M⁻¹ s⁻¹.

The target of a further test is T1, Human OX40 (Sino Biological Inc). Described as above. This is another data set of the same source. As for the experimental part:
as §1
Variants were tested by Biacore as described above to evaluate binding kinetics and in co-stimulation assays to determine biological activity.
Take B23: the dissociation constant Kd was determined as 0.557 nM, the off-rate (koff) was found to be 0.000215 s⁻¹ and the association rate constant (kon) was found to be 387000 M⁻¹ s⁻¹.
The corresponding values for B24 are 0.311 nM, 0.000108 s⁻¹ and 349000 M⁻¹ s⁻¹.
The corresponding values for B25 are 0.259 nM, 8.32e-05 s⁻¹ and 321000 M⁻¹ s⁻¹.
The matching figures for B26: 0.442 nM, 0.000121 s⁻¹ and 275000 M⁻¹ s⁻¹.
As to B27, the Kd turned out to be 0.355 nM, the koff was determined as 0.000108 s⁻¹ and the kon came to 304000 M⁻¹ s⁻¹.
